Data taken from the supplement of paper PMC10126150.
± gives the standard deviation of the averaged measurements.

Test system: ATP
Assay: switch fluorescence ratio, 500 uM ATP over buffer (Cy3 cluster intensity, sum of 5 cycles each) (fold (ratio)); higher = stronger signal-on switching upon ATP binding; sequences stand for … in TCGTCGGCAGCGTCAGATGTGTATAAGAGACAGTTTTTTTTTTTTTTTTTTTTTTTTT…TC
Details: aptamer strand: ATP DNA aptamer (quencher-CACCTGGGGGAGTATTGCGGAGGAAGG + anchor), 100 nM annealed; ATP concentration: 500 uM
Outline: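 The quencher-labelled ATP aptamer, at 100 nM, was annealed to Cy3-labelled switching-strand clusters on a modified Illumina MiSeq flow-cell. The clusters were imaged in selection buffer, then after 15 min with 500 uM ATP at 22 °C, and this buffer/ATP cycle ran five times with NaOH stripping and re-annealing between runs. Per-cluster fluorescence ratios, summed target-cycle over summed buffer-cycle Cy3 intensity, were averaged per switch-domain sequence. Clusters outside 100-1000 RFU were excluded.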
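Further: ATP exposure 15 min at 22 °C before imaging.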

GGATGCTGTT showed a switch fluorescence ratio of 1.02 ± 0.012.

For TTGTTTCATG, the switch fluorescence ratio was 1.01 ± 0.025.

With ATGGGGCCAA the switch fluorescence ratio was 1.03 ± 0.031.

Sequence CCGGCGGATT has a switch fluorescence ratio of 1.08 ± 0.056.

GTAGTACCGG gave a switch fluorescence ratio of 1.02 ± 0.028.

With CCCCGGATGG the switch fluorescence ratio was 1.26 ± 0.22.

TTTATGGTTC gave a switch fluorescence ratio of 0.992 ± 0.01.

TGGTCGCAGG was tested, and the switch fluorescence ratio was 0.9899 ± 0.005.

Work on ATTGCTCTGT yielded a switch fluorescence ratio of 1.04 ± 0.036.

GTGTTCGCTT gave a switch fluorescence ratio of 0.984 ± 0.0099.

In the case of ATCATGTGTT, the switch fluorescence ratio is reported as 0.994 ± 0.022.

CTTTTAGGA showed a switch fluorescence ratio of 0.995 ± 0.021.

With GGGAGTGTGT the switch fluorescence ratio was 0.986 ± 0.039.

With CGAAAAGGCT the switch fluorescence ratio was 1.01 ± 0.016.

AGCTGGTGGC gave a switch fluorescence ratio of 1.01 ± 0.078.

For CGGTTGTTTG, the switch fluorescence ratio was 0.974 ± 0.015.

Work on CGTTATATAA yielded a switch fluorescence ratio of 1.04 ± 0.014.

With GTTTTATGGA the switch fluorescence ratio was 0.983 ± 0.034.

With TCTTTTTCTT the switch fluorescence ratio was 1.01 ± 0.033.

With TCTATGAGGC the switch fluorescence ratio was 0.988 ± 0.024.

Sequence TAGGCCTCGA has a switch fluorescence ratio of 0.985 ± 0.026.

In the case of TAGGTGGTGC, the switch fluorescence ratio is reported as 0.986 ± 0.045.

GTTGGAAACA gave a switch fluorescence ratio of 0.945 ± 0.01.

For AGTTTGGGGG, the switch fluorescence ratio was 0.966 ± 0.029.

For CGGCTTACCC, the switch fluorescence ratio was 1.14 ± 0.2.

Work on ATTGTTACAG yielded a switch fluorescence ratio of 1.01 ± 0.016.

With GTGGTTGTAT the switch fluorescence ratio was 0.974 ± 0.015.

Work on ATAAGCGGAG yielded a switch fluorescence ratio of 1 ± 0.013.

GCGATGGTCG was tested, and the switch fluorescence ratio was 0.937 ± 0.14.

GCGTATGTAC showed a switch fluorescence ratio of 1.212 ± 0.0081.

AGATTCGGTC showed a switch fluorescence ratio of 1 ± 0.018.

ACGTGTAGGC showed a switch fluorescence ratio of 1.01 ± 0.04.

TTCAGCGCGC showed a switch fluorescence ratio of 1.007 ± 0.0075.

GGTGAGGGGA showed a switch fluorescence ratio of 1.01 ± 0.011.

AGGAAATTAT showed a switch fluorescence ratio of 1.01 ± 0.029.

TAATCTGGCT showed a switch fluorescence ratio of 0.993 ± 0.011.

Sequence CTTTACACAG has a switch fluorescence ratio of 1.0006 ± 0.00047.

Work on TTTAGGGGGG yielded a switch fluorescence ratio of 1.01 ± 0.099.

GCATTATGTT showed a switch fluorescence ratio of 0.987 ± 0.044.

For GACTACAGTG, the switch fluorescence ratio was 1.1 ± 0.019.

In the case of GAAGGGGTTA, the switch fluorescence ratio is reported as 1.03 ± 0.087.

With CTTGCATAAC the switch fluorescence ratio was 3.51 ± 0.88.

With AAGGATTATT the switch fluorescence ratio was 0.97 ± 0.024.

GCGATTGGGG gave a switch fluorescence ratio of 0.9705 ± 0.0044.

For GGGGTTAGTC, the switch fluorescence ratio was 1.02 ± 0.0085.

GGCCTGAGGG showed a switch fluorescence ratio of 0.9854 ± 0.0032.

ATGTATATAA showed a switch fluorescence ratio of 0.985 ± 0.018.

Sequence TACATTTTAC has a switch fluorescence ratio of 1.151 ± 0.0082.

Sequence TTGTGCAAAT has a switch fluorescence ratio of 1.009 ± 0.006.

In the case of AGTTTTTGAG, the switch fluorescence ratio is reported as 1 ± 0.013.

With TTGTTGAAAT the switch fluorescence ratio was 1.03 ± 0.074.

Sequence GCCGGGCAAC has a switch fluorescence ratio of 0.995 ± 0.037.

In the case of GGGGAGGGAT, the switch fluorescence ratio is reported as 0.996 ± 0.017.

For TACACGAAAA, the switch fluorescence ratio was 1.13 ± 0.13.

For TCATTCGTTT, the switch fluorescence ratio was 1.01 ± 0.016.

Sequence CGGGCTGGGG has a switch fluorescence ratio of 0.993 ± 0.039.

For TGAGCATGAA, the switch fluorescence ratio was 1 ± 0.024.

Sequence ATGAGGGCGG has a switch fluorescence ratio of 0.98 ± 0.021.

In the case of ACTAAACTTG, the switch fluorescence ratio is reported as 1.014 ± 0.0022.

In the case of GGGATGGGCA, the switch fluorescence ratio is reported as 1.01 ± 0.055.

For TTTATCCCGA, the switch fluorescence ratio was 1.03 ± 0.048.

For GGAGCAGTTT, the switch fluorescence ratio was 1.12 ± 0.019.

TGGGGGCTGT gave a switch fluorescence ratio of 0.998 ± 0.016.

Work on CATTCTGCGC yielded a switch fluorescence ratio of 1.16 ± 0.05.

In the case of ATTGGGCGCG, the switch fluorescence ratio is reported as 0.995 ± 0.018.

TGATGGCCGA showed a switch fluorescence ratio of 0.985 ± 0.019.

GAGGGGCTAA showed a switch fluorescence ratio of 0.9516 ± 0.0088.

With TTTTGAGAAA the switch fluorescence ratio was 0.99 ± 0.028.

TTTGGGTAAG was tested, and the switch fluorescence ratio was 1 ± 0.024.

GAAAGGGTTT showed a switch fluorescence ratio of 1.01 ± 0.048.

Sequence GGATTATACA has a switch fluorescence ratio of 1.02 ± 0.002.

In the case of TTAAAAAATT, the switch fluorescence ratio is reported as 1.02 ± 0.039.

TTGAGTACTA was tested, and the switch fluorescence ratio was 1.01 ± 0.022.

With GGGGGAACGT the switch fluorescence ratio was 1.05 ± 0.037.

In the case of TATTTCTGAT, the switch fluorescence ratio is reported as 0.988 ± 0.016.

For ATTAGAGGGG, the switch fluorescence ratio was 0.9862 ± 0.0067.

Sequence TTGAGAGGGA has a switch fluorescence ratio of 0.99 ± 0.019.

TGGTTCCCTT gave a switch fluorescence ratio of 1.02 ± 0.07.

TGGCCAGGGT gave a switch fluorescence ratio of 1.06 ± 0.031.

With ATGAGTACGG the switch fluorescence ratio was 1.04 ± 0.03.

With TATTATGAAT the switch fluorescence ratio was 0.999 ± 0.0024.

ATCGGAAAAA showed a switch fluorescence ratio of 1.02 ± 0.026.

Sequence TAAATGTTAC has a switch fluorescence ratio of 1.0644 ± 0.0005.

With GGGGGAGAAA the switch fluorescence ratio was 1.02 ± 0.033.

With AGAGCTATAA the switch fluorescence ratio was 1.254 ± 0.0015.

With TGGAAAAGTT the switch fluorescence ratio was 0.993 ± 0.017.

With CGAGCAGTAG the switch fluorescence ratio was 3.57 ± 0.31.

In the case of AGGGATTACG, the switch fluorescence ratio is reported as 1.01 ± 0.038.

ATTTTGAAAG gave a switch fluorescence ratio of 1.01 ± 0.022.

TGTTTGTAAA showed a switch fluorescence ratio of 1.01 ± 0.029.

Work on CCCGCGGTGT yielded a switch fluorescence ratio of 2.41 ± 0.19.

TTCCCACCGT gave a switch fluorescence ratio of 1.06 ± 0.031.

TAGCAGTCGA showed a switch fluorescence ratio of 1.09 ± 0.058.

In the case of GGTGGATTGC, the switch fluorescence ratio is reported as 1.04 ± 0.02.

TCGGGGAAAT showed a switch fluorescence ratio of 1.01 ± 0.023.

AGGGTCGCTG was tested, and the switch fluorescence ratio was 1.016 ± 0.0011.

Work on AAGAGCGAGT yielded a switch fluorescence ratio of 1 ± 0.011.

Work on TCATGCTGGT yielded a switch fluorescence ratio of 1.01 ± 0.024.

Work on TTGTCTATGA yielded a switch fluorescence ratio of 0.986 ± 0.028.

For GTGGGCGGTC, the switch fluorescence ratio was 0.995 ± 0.057.

TAGAGTCCAT gave a switch fluorescence ratio of 1.02 ± 0.019.

In the case of CATCGGCAAG, the switch fluorescence ratio is reported as 5.75 ± 1.3.

AAGGTTCGAA gave a switch fluorescence ratio of 1.023 ± 0.0033.

GGGCTGTCTG showed a switch fluorescence ratio of 0.9631 ± 0.0076.

GCATTCAGGG was tested, and the switch fluorescence ratio was 1.09 ± 0.14.

In the case of AGGGCTAATA, the switch fluorescence ratio is reported as 1.009 ± 0.0081.

TGGGAGGCAA was tested, and the switch fluorescence ratio was 1.16 ± 0.021.

In the case of GGATGTAGAA, the switch fluorescence ratio is reported as 1.026 ± 0.0011.

In the case of TATCAACCTT, the switch fluorescence ratio is reported as 1.25 ± 0.34.

TCGGGAAGGG gave a switch fluorescence ratio of 0.991 ± 0.014.

In the case of TAAGTTGTGC, the switch fluorescence ratio is reported as 1.02 ± 0.15.

Sequence TCGTTTTGCA has a switch fluorescence ratio of 0.991 ± 0.013.

CTGATTCGGT was tested, and the switch fluorescence ratio was 0.9889 ± 0.0027.

TAACGCTGTT showed a switch fluorescence ratio of 1.01 ± 0.0068.

TCAGACTAGA showed a switch fluorescence ratio of 1.028 ± 0.0045.

With ATTTGGGACT the switch fluorescence ratio was 1.03 ± 0.036.

Work on TTCCGGTAAC yielded a switch fluorescence ratio of 2.07 ± 0.13.

TTTGGGCGCT was tested, and the switch fluorescence ratio was 1.04 ± 0.048.

In the case of GCGTTTGGGC, the switch fluorescence ratio is reported as 0.99 ± 0.057.

Work on CTCGGGGCGG yielded a switch fluorescence ratio of 1.02 ± 0.037.

AAAGGATGGG gave a switch fluorescence ratio of 1 ± 0.016.

For AAAGAGTATA, the switch fluorescence ratio was 0.9972 ± 0.0036.

For AGGCTTTCCT, the switch fluorescence ratio was 1.05 ± 0.04.

TGTTGAAAAT gave a switch fluorescence ratio of 1.02 ± 0.048.

TGTTATACGT gave a switch fluorescence ratio of 1.02 ± 0.019.

In the case of AGTAAGTATG, the switch fluorescence ratio is reported as 1.04 ± 0.054.

Work on TGCAGTCAAG yielded a switch fluorescence ratio of 1.01 ± 0.016.

With TCGAGATGTA the switch fluorescence ratio was 1.03 ± 0.067.

GGATTAAGTG was tested, and the switch fluorescence ratio was 0.9616 ± 0.006.

In the case of CAGGATATAT, the switch fluorescence ratio is reported as 1.01 ± 0.027.

TAATGGCTT showed a switch fluorescence ratio of 1.003 ± 0.0022.

With TTTTCTCTTT the switch fluorescence ratio was 1.01 ± 0.035.

Sequence ATTAATTCGT has a switch fluorescence ratio of 0.996 ± 0.071.

With GGGACGGGGG the switch fluorescence ratio was 1.06 ± 0.16.

TGAAATTTAG showed a switch fluorescence ratio of 1.01 ± 0.047.

Work on GACACAGGGG yielded a switch fluorescence ratio of 1.06 ± 0.047.

In the case of TTTGGGCGCC, the switch fluorescence ratio is reported as 1 ± 0.018.

GGGTCTTCGT was tested, and the switch fluorescence ratio was 0.968 ± 0.039.

AGATCTGGAG gave a switch fluorescence ratio of 0.9982 ± 0.0069.

Sequence AGTTTTTTGG has a switch fluorescence ratio of 1.01 ± 0.033.

With TTGTTGTGGT the switch fluorescence ratio was 0.987 ± 0.032.

In the case of TTAAGATGAG, the switch fluorescence ratio is reported as 0.961 ± 0.035.

In the case of TTAACTTGAG, the switch fluorescence ratio is reported as 0.9831 ± 0.0047.

TTGGGGTTTT gave a switch fluorescence ratio of 1.01 ± 0.037.

GCGCTAGGGC gave a switch fluorescence ratio of 1 ± 0.014.

ATCAAATCGG was tested, and the switch fluorescence ratio was 1.01 ± 0.025.

Work on GACTCTATGG yielded a switch fluorescence ratio of 0.943 ± 0.11.

ACGGGGCCGG was tested, and the switch fluorescence ratio was 1.06 ± 0.032.

TGATCAGGGA gave a switch fluorescence ratio of 1.02 ± 0.021.

With TGTGAAGTTT the switch fluorescence ratio was 0.9595 ± 0.0076.

Sequence TGAATAGGGC has a switch fluorescence ratio of 0.9882 ± 0.0097.

In the case of CGTCTTCCTG, the switch fluorescence ratio is reported as 1 ± 0.056.

Sequence GATGTACCGC has a switch fluorescence ratio of 1.12 ± 0.042.

GAGGACATGC was tested, and the switch fluorescence ratio was 0.979 ± 0.11.

For TATAATTTTT, the switch fluorescence ratio was 1.03 ± 0.074.

ACGCTAGCCT gave a switch fluorescence ratio of 1.18 ± 0.032.

In the case of AAGTATAGGT, the switch fluorescence ratio is reported as 1.03 ± 0.017.
